Measured values published in PMC2939592, “Laser ablation-based one-step generation and bio-functionalization of gold nanoparticles conjugated with aptamers”.

Biological target: PSMA (prostate-specific membrane antigen) (human, UniProt Q04609 1-750)
Assay: tissue microarray staining with silver enhancement; 1 mM MgCl2, 1 mM CaCl2; epithelial staining similar to anti-PSMA antibody; extra smooth muscle staining; miniStrep: 50 mM Tris-Cl pH 8.0, 150 mM NaCl, 10 mM MgCl2, room temperature (16 h in solution); anti-PSMA: 20 mM HEPES pH 7.4, 150 mM NaCl, 1 mM MgCl2, 1 mM CaCl2, 0.05% Tween 20, 20 C
Details: protein: native; chain copies: 2; label: AuNP

Chain of PSMA (prostate-specific membrane antigen) (Q04609 whole entry): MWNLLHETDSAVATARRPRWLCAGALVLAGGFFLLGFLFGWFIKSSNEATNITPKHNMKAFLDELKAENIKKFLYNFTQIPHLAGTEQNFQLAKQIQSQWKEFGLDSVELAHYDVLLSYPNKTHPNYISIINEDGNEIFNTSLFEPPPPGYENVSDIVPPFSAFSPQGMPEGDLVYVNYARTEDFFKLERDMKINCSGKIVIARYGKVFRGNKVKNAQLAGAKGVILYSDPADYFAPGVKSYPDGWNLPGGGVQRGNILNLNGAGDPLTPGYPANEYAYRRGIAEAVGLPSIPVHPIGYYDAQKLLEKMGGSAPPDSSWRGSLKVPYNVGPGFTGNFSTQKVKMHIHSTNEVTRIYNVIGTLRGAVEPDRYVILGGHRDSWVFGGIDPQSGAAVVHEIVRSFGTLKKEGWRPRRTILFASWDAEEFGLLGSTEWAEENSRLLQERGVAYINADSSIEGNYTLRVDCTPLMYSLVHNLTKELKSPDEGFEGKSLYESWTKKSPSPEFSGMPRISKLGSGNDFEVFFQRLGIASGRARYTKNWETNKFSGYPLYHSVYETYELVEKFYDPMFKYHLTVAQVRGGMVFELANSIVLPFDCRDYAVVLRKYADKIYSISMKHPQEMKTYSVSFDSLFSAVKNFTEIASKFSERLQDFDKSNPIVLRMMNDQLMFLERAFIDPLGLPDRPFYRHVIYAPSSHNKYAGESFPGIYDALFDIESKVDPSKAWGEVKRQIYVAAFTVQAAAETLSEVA

B1: anti-PSMA aptamer on AuNP (structured_RNA)
RNA: GGGAGGACGAUGCGGAUCAGCCAUGUUUACGUCACUCCUUGUCAAUCCUCAUCGGCAGACGACUCGCCCGA
modifications: 3'-(CH2CH2O)6-(CH2)6-S-S-(CH2)6OH, conjugated to gold nanoparticle; base/sugar modifications not stated
B1: binds.
